Experimental data reported in the supplement of paper PMC9170038.

Test system: MS2 coat protein
Assay: apparent KD of MS2 coat protein; designed switch direction (-1 OFF switch, 1 ON switch): -1; higher = weaker reporter binding
Procedure, shortened: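 An oligonucleotide input, 200 uM small-molecule ligand, or no input was present during titration of SNAP-549-labelled MS2 coat protein, which was doubled from 0.7 or 1.5 nM to 3 µM. Designed RNA switches had been transcribed on Illumina chips by stalled E. coli RNA polymerase. Apparent KD per design is the median over clusters of curves fitted to normalised cluster fluorescence.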

[1] = input ligand: microRNA oligo, concentration not stated
[2] = Eterna round: R95, input ligand: microRNA oligo, concentration not stated

Row | Sequence | apparent KD of MS2 coat protein (input ligand: FMN 200 uM) [nM] | apparent KD of MS2 coat protein (input ligand: none) [nM] | apparent KD of MS2 coat protein [1] [nM] | apparent KD of MS2 coat protein [2] [nM]
1 | UCUCGGACAGGAUAUCUGUCAUCUGACAUGAGGAUCACCCAUGUCCUCGCCGCCAACCCAAGAGAAGGGUCCCACA [Eternabot (L1) Solution 76] (Eterna round: R97, puzzle: Exclusion 5) | 99.2 | 120 |  | 
2 | UCUCGUUGGCAAGGAUAUCCUACAUUGUUCUGGCCCGGGCAUGCUACAUGAGGAUCACCCAUGUGGGAGAAGGUGCGCCACUGC [Design 25] (Eterna round: R96, puzzle: Exclusion NG 2) | 95.5 | 108 | 67.6 | 
3 | UCUGGUCGAGGAUAUACAUGAGGAUCACCCAUGUAGAUCAACCAGCGAUAGCUGGAAUGUAGAAGGCGACCAGA [E3/5-A3] (Eterna round: R97, puzzle: Exclusion 3) | 381 | 30.4 |  | 
4 | UCUUAUUGAGGAUAUACAGAUUAUUACAUGAGGAUCACCCAUGUUCUUCAAUGUAUAUAUGUAGAAGGCAGAGGAA [Mat - Exclusion 5 - JL Mod - D11] (Eterna round: R97, puzzle: Exclusion 5) | 112 | 67.4 |  | 
5 | UCUUAUUGAGGAUAUACAGAUUAUUACAUGAGGAUCACCCAUGUUCUUCAAUGUAUAUAUGUAGAAGGCAGAGGAU [Mat - Exclusion 5 - JL Mod - D12] (Eterna round: R97, puzzle: Exclusion 5) | 217 | 68.6 |  | 
6 | UCUUUCAUUGUGAGGAUAUGCCCAAAUAAAAGCGGGCAGAAGGCACAUGAGGAUCACCCAUGUCCUGCGGUUUU [salish99_bmx4_r4_149] (Eterna round: R97, puzzle: Brourd's mod of Exclusion 4) | 177 | 40.7 |  | 
7 | UGAAUGUGAGGAUAUGGUGAGUAGUGCCAGAGCGCUGCUCACCAGAAGGCACAUGAGGAUCACCCAUGUACUUG [Mat - Exclusion 4 - Mod of JL - D18] (puzzle: Exclusion 4) |  |  |  | 47.8
8 | UGAGCUACAGGAUAUACAAGGCGACCGUGAGGUCGAAGGUUACAUGAGGAUCACCCAUGUAGAAGGGUAGUUCU [Mat - Exclusion 2 - JL Mod - D15] (Eterna round: R97, puzzle: Exclusion 2) | 130 | 126 |  | 
9 | UGAGGACAUGAGGAUCACCCAUGUAAGGAUAUGCGGAGAGUUUGGAGAGGUUGAGGAGGCAGAAGGUACAGGAU [JR_Exclu1_Sub047] (puzzle: Exclusion 1) |  |  |  | 49.2
10 | UGAUCACAUGAGGAUCACCCAUGUCAGGAUAUCGUCACUGGAGCCUCGGCUCCAGUGACGAGAAGGGACAUAAU [E1/3-A2] (Eterna round: R97, puzzle: Exclusion 1) | 137 | 253 |  | 
11 | UGAUCAGACCGAGGAUAUAUAUGUAGGACCCACGUGAGUGGGUCCAGUACAUGAGGAUCACCCAUGUAGAAGGCGGUCUGAUCU [JL ENG2 1.87] (Eterna round: R96, puzzle: Exclusion NG 2) | 19.2 | 15 | 10.7 | 
12 | UGAUCUAGCGGAGGAUAUACAUGAGGAUCACCCAUGUAGAUAAGUGUACCGUAGUGCACUAUUGUGUAGAAGGCCGCUAGAUCU [JL ENG2 3.64] (Eterna round: R96, puzzle: Exclusion NG 2) | 30.5 | 11.9 | 9.35 | 
13 | UGAUUGAUUAACAGAUUAUACAUGAGGAUCACCCAUGUAGGUCCUACGUGCCCUUUAUGCAGCUCGUCUUAUUCCCA [Sensor-V1 #70] (Eterna round: R97, puzzle: Sensor, turn-off variant 1) | 53.6 | 50 |  | 
14 | UGAUUGUUUACCAGGUUAUACAUGAGGAUCACCCAUGUAGAUCCUACGUGCGCGUUGUACCGCUCGUCUUAUUCCCA [Sensor-V1 #78] (Eterna round: R97, puzzle: Sensor, turn-off variant 1) | 18.3 | 18.9 |  | 
15 | UGCAGACGAGGAUAUAAAUUUAAAUACAUGAGGAUCACCCAUGUAUAAAUGUAUUUAAAUUUAGAAGGCGUCUGCU [E5/12-A4] (Eterna round: R97, puzzle: Exclusion 5) | 500 | 606 |  | 
16 | UGCAUGGUAGGAUAUACGGAGCAUUAGGGUUUGUUAUGUGGACAUGAGGAUCACCCAUGUAGAAGGGCCGUGCU [JL-ex2-2.16 mat747 mod] (puzzle: Exclusion 2) |  |  |  | 32.6

Row | Sequence | apparent KD of MS2 coat protein (input ligand: FMN 200 uM) [nM] | apparent KD of MS2 coat protein (input ligand: none) [nM] | apparent KD of MS2 coat protein [1] [nM] | apparent KD of MS2 coat protein [2] [nM]
17 | UGCAUGGUAGGAUAUACGGAGCAUUAGGGUUUGUUGUGUGGACAUGAGGAUCACCCAUGUAGAAGGGCCGUGCU [JL-ex2-2.17 mat747 mod] (puzzle: Exclusion 2) |  |  |  | 35.5
18 | UGCAUGUCAGGAUAUAUUAGUACACUAGUCAGUCUAGGUGCGUAGAAGGGACAUGAGGAUCACCCAUGUGACAU [Eternabot (L2) Solution 1] (Eterna round: R97, puzzle: Exclusion 4) | 143 | 64.9 |  | 
19 | UGCCGAUGAGGAUAUACAUUGAAUAAGAUUCAUGUAAAACUACAUGAGGAUCACCCAUGUAGAAGGCAUUGGCU [Mat - Exclusion 2 - JL Mod - D69] (Eterna round: R97, puzzle: Exclusion 2) | 25.7 | 15.6 |  | 
20 | UGCCGUUGAGGAUAUACAUAGAAAUAGAUUCAUGUAAAACUACAUGAGGAUCACCCAUGUAGAAGGCAAUGGCU [Mat - Exclusion 2 - JL Mod - D51] (Eterna round: R97, puzzle: Exclusion 2) | 128 | 23.9 |  | 
21 | UGCCUAGCAGGAUAUGCUCGGGAUUACAUGAGGAUCACCCAUGUGACUGAUUGUUGUCUUGCAGAAGGGCUAGGGA [JL-EX5-4.05 ViennaUCT mod] (Eterna round: R97, puzzle: Exclusion 5) | 443 | 99.7 |  | 
22 | UGCCUUUGAGGAUAUACGUAGAAAUAGAUUCAUGUAAAACUACAUGAGGAUCACCCAUGUAGAAGGCAAGGGCU [Mat - Exclusion 2 - JL Mod - D48] (Eterna round: R97, puzzle: Exclusion 2) | 164 | 24 |  | 
23 | UGCGGUAGAGGAUAUACGUAGAAUUAGGUUCAUGUAAAACUACAUGAGGAUCACCCAUGUAGAAGGCUAUCGCU [JL-ex2-4.30 Eli mod] (Eterna round: R97, puzzle: Exclusion 2) | 85.4 | 21.2 |  | 
24 | UGCUACAUGAGGAUCACCCAUGUUAUUUGGGAUUUUUUAGGACAGGAUAUGAUUGUAUUGUUUUUUCAGAAGGGUCAUUACUUU [JR_ExcNG3_Sub013] (Eterna round: R96, puzzle: Exclusion NG 3) | 368 | 347 | 316 | 
25 | UGCUAGUCAGGAUAUACGAACAUGUCAAAAGACGUGAAGGGACAUGAGGAUCACCCAUGUAGAAGGGACUAGCC [salish99_ex2_r3_008] (puzzle: Exclusion 2) |  |  |  | 25.5
26 | UGGUGGAAGCAGGAUAUGCUAGAAGUGUAGAAUGCAGAAGGGCUAACAUGAGGAUCACCCAUGUAAGAGGUGUU [JR_E6_Sub052] (puzzle: Exclusion 6) |  |  |  | 296
27 | UGGUGGUAGCAGGAUAUGCUUGUUGUGUAGUUUGCAGAAGGGCUAACAUGAGGAUCACCCAUGUAAGAGGUGUU [JR_E6_Sub054] (puzzle: Exclusion 6) |  |  |  | 339
28 | UGUAAGCUAGGAUAUGCUUUGGGAAAGCAUUCCUUCGAUAAACUUGAGGAUCACCCAAGUAGAAGGAGCUUACU [salish99_ex2_r4_006] (Eterna round: R97, puzzle: Exclusion 2) | 17.5 | 11.5 |  | 
29 | UGUGUGAGACAGGAUAUGCCGGAUGAAAUGCAGGUAGAAGGGUCUACAUGAGGAUCACCCAUGUGGCCGGUUGG [Ex6 #75] (Eterna round: R97, puzzle: Exclusion 6) | 18.9 | 15.1 |  | 
30 | UGUGUGAGACAGGAUAUGCUGGAUGAGAGGCAGGUAGAAGGGUCUACAUGAGGAUCACCCAUGUGGCCGGUUGG [Ex6 #72] (Eterna round: R97, puzzle: Exclusion 6) | 26.9 | 26.3 |  | 
31 | UGUUGGUACGUAGGAUAUCCACCAACAGGUGGAAGGAUAUGGAAACAGAAGGUUCGCCAACAGGCGGAGAAGGACGUGGUAACU [pwkr exNG2 2xF7 2xFMN.24] (Eterna round: R96, puzzle: Exclusion NG 2) | 126 | 255 | 212 | 
32 | UGUUGUCGCGCAGGAUAUGAGGAUCACCCAUAUAAGGAUAUCGAAAGAGAAGGUCUGAGGAUUACCCAGAAGGGCGGGACAACU [pwkr exNG2 2xF5 2xFMN.30] (Eterna round: R96, puzzle: Exclusion NG 2) | 309 | 70.1 | 43.8 | 
